From patent publication US7045537B1, “Protein structures and protein fibres” (The University of Sussex, priority 1999, dated 2006) come the findings set out here.

Values joined by “and” are separate entries in the source; they are usually repeats but may differ in a detail not shown here. Identical values can stand only once.

Series [1] addresses T1, SAF-p2B (CH3CO at the N terminus and NH2 at the C terminus).
T1 peptide: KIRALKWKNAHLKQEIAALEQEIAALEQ
Description: thermal melt by circular dichroism of the peptide mixture, 10 µM (expect 19° C. if no interaction).

The target of series [2] is T1, SAF-p2B. Description: circular dichroism of the peptide mixture, 100 µM. The method, then:
(§1) Peptide samples were incubated at 5° C. in 10 mM MOPS (3-(N-Morpholino)propanesulfonic acid), pH 7. Sample concentrations were determined from their UV absorbance at 280 nm (SAF-p1) and 214 nm (SAF-p2). After baseline correction, ellipticities in mdeg were converted to molar ellipticities (deg cm^2 dmol-res^-1) by normalizing for the concentration of peptide bonds. Data were recorded in a cell of 1 mm path length by integrating the signal for 5s (and 1s for the fresh 100 µM peptide mixture) every nm in the range 205–260 nm. CD measurements were made using a JASCO J-715 spectropolarimeter fitted with a Peltier temperature controller.

The target of series [3] is T1, SAF-p2B. Nature of the series: circular dichroism of the peptide mixture, 10 µM. The method, then:
as §1

Series [4] concerns the target T1, SAF-p2B. Description: thermal melt by circular dichroism of the peptide mixture, 100 µM (expect 36° C. if no interaction).
The target in series [5] is T2, SAF-p2A.
T2 sequence (peptide): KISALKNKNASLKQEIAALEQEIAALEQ
Description: circular dichroism of the peptide mixture, 100 µM.

The target in series [6] is T3, SAF-p2C.
T3 construct: Designed peptide, uncapped ends
T3 peptide: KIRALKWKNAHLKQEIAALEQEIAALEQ
Nature of the series: circular dichroism of the peptide mixture, 100 µM. On the procedure:
as §1

The target of series [7] is T1, SAF-p2B. Nature of the series: thermal melt by circular dichroism of the peptide mixture, 100 µM (expect 38° C. if no interaction).
Series [8] concerns the target T3, SAF-p2C. Description: circular dichroism of the peptide mixture, 10 µM. On the procedure: as §1
Series [9] addresses T2, SAF-p2A. Nature of the series: thermal melt by circular dichroism of the peptide mixture, 100 µM.
The target of series [10] is T2, SAF-p2A. Description: circular dichroism of the peptide mixture, 10 µM.
Series [11] deals with T4, SAF-p2D.
T4 construct: also called Self-Assembling Fibre peptide 2
T4 peptide: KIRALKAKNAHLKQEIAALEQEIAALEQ
Nature of the series: circular dichroism of the peptide mixture, 100 µM. The method, then:
as §1

Series [12] deals with T4, SAF-p2D. Description: circular dichroism of the peptide mixture, 10 µM. The method, then: as §1

B1: SAF-p1B (peptide)
peptide: Ac-KIAALKQKIAALKQEIDALEYENDALEQ-NH2
notes: Chemically capped form of SAF-p1A
Turning to B1, the “Tm of the mixture (CD)” value with SAF-p2B [1] was about 25 ° C; with SAF-p2B [4] it was about 35 ° C. Further, the “% α-helix of the mixture (CD)” value is about 80% with SAF-p2B [2] and about 70% with SAF-p2B [3].

B2: SAF-p1A (peptide)
peptide: KIAALKQKIAALKQEIDALEYENDALEQ
notes: Prototype designed peptide, uncapped ends
Turning to B2, the % α-helix of the mixture (CD) with SAF-p2A [5] is 40%; in the series with SAF-p2C [6], about 80%; in the series with SAF-p2B [2], about 65%; with SAF-p2C [8] it was about 20%; with SAF-p2A [10], 20%. In addition, the “Tm of the mixture (CD)” value with SAF-p2B [7] was ~36 ° C. and ~46 ° C; with SAF-p2A [9] it was 30 ° C.

B3: SAF-p1C (peptide)
peptide: KIAALKQKIASLKQEIDALEYENDALEQ
notes: also called Self-Assembling Fibre peptide 1
In the case of B3, the “% α-helix of the mixture (CD)” value was about 85% with SAF-p2D [11], about 65% in the series with SAF-p2C [6], about 25% with SAF-p2D [12] and about 25% with SAF-p2C [8].
